Patent US20210147485A1, “PEPTIDE LIGANDS FOR BINDING TO INTEGRIN” (BicycleTx Limited, priority 2018, published 2021)
Starred links: 1 amine or outer side, 2 acyl side, 3 side chain; linkers in the order of their positions; H or OH if unused. Positions of bridges follow the written chain, without caps; N, C: chain ends. Non-standard residues stand in square brackets, D forms with d. No end group written: not given here. TBMB = c1c(C[*:1])cc(C[*:3])cc1C[*:2]; Dap(Me) = CNC[C@H](N)C(=O)O

Legend:
[1] = biological target: integrin αvβ3 (Homo sapiens, UniProt P05106+P06756); test: Integrin αvβ3 competition binding assay (competition fluorescence polarisation, FITC-LC-GRGDSP ligand); settings: relative to thioether linked Reference Example 1
Protocol: The peptide ligands of the examples and the reference examples were tested in the above mentioned assay.
The following reference peptide ligands having a TBMB or TATA scaffold with three thioether linkages to cysteine residues of the specified peptide sequences were prepared and evaluated for affinity to integrin αvβ3 as described in detail in our earlier application GB1800598.3 filed 15 Jan. 2018.

[2] = biological target: integrin αvβ3; test: competition fluorescence polarisation, 5 nM FITC-LC-GRGDSP tracer; n1
[3] = biological target: integrin αvβ3; test: competition fluorescence polarisation, 5 nM FITC-LC-GRGDSP tracer; n2

Molecule | binding affinity to integrin αvβ3 (in words) [1] | Ki [2] | Ki [3]
[Ac]A[Dap(Me)]ILRPN[Dap(Me)]DLDGR[Dap(Me)]A [BCY00009181] | larger drop in the measured affinity |  | 
Ac-A[Dap(Me)]ILRPN[Dap(Me)]DLDGR[Dap(Me)]A (linker 2-8-14 via TBMB) [BCY00009181] |  | > 18.6 µM | > 18.6 µM
